Data on one molecule can be found in patent publication CN111320686A.

In experiment [1] the target is H7N9病毒 A/Anhui/1/2013 的血凝素HA (on live virus) (H7N9 influenza virus A/Anhui/1/2013). The experiment is described as follows: cell-based or functional assay.
For experiment [2], the target named is H7N9病毒的HA蛋白(购自ACROBiosystems) (H7N9 influenza virus).
For experiment [3] the target is unchanged. This is another data set of the same source.

Where “and” joins values, the source holds several entries; their conditions need not be identical. Equal entries are not always repeated.

B1: 抗H7N9全人源单克隆抗体2G3 (antibody, V domains shown)
VH: QVQLVESGAEVKKPGASVKVSCKASGYIFTSYEINWVRQATGQGLEWMGWMNPESGETGFAQKFQGRVTMTRNTSITTAYMELSSLTSEDTAVYYCATGNAECSGGSCYNWFEPWGQGTLVTVSS
VL: SSELTQDPAVSVALGQTVRITCQGDKLKSYYASWYQQKPGQAPVLVIYGRNNRPSGIPDRFSGSSSGNTASLTITGAQAEDEADYYCNSKETSGYHLVFGGGTKLTVLV
The molecule B1 had a 微量中和-ELISA (MDCK细胞, 100TCID50 病毒) IC50 in experiment [1] of 0.0711 µg/mL. For the same molecule, the 450nm (OD) in experiment [2] is 1.6 OD 450nm and 2 OD 450nm and 1.78 OD 450nm. In addition, the Kd in experiment [3] came to 2.3 nM.
